Measured values: patent US12679878B2, “CRF2 receptor agonists and their use in therapy” (SANOFI, priority 2020, dated 2026)
Starred links: 1 amine or outer side, 2 acyl side, 3 side chain; linkers in the order of their positions; H or OH if unused. Groups on a side chain read outwards from the residue. No end group written: not given here. *: point of attachment. C18 diacid = O=C(O)CCCCCCCCCCCCCCCCC(=O)*; γGlu = O=C(O)[C@H](CCC(=O)[*:2])N[*:1]; Palmitoyl = CCCCCCCCCCCCCCCC(=O)*; AEEA = NCCOCCOCC(=O)O

Target: human corticotropin-releasing factor 2α (CRF2 α receptor) (human), Q13324
Experiment: cell-based or functional assay

Chain of human corticotropin-releasing factor 2α (CRF2 α receptor) (human), Q13324 (Q13324 20-411): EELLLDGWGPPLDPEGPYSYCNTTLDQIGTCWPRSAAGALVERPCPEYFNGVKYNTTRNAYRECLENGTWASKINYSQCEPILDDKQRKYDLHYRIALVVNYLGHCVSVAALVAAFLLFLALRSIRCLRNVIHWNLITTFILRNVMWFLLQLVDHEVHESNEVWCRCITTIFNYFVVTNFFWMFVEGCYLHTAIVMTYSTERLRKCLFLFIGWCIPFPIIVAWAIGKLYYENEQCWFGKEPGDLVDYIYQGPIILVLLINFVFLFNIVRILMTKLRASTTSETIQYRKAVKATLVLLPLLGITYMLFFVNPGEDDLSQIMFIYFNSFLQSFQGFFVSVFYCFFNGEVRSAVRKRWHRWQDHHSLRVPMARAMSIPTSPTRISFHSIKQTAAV

Row | Binder | EC50 [nM], 0% HSA [nM] | EC50 [nM], 0.1% HSA [nM]
1 | FTLSLDVPTKIKQILLKQQKQKKERQQAEKNKQLLEQI-NH2 (not fully specified (residue 12); printed as FTLSLDVPTKIK*QILLKQQKQKKERQQAEKNKQLLEQI-NH2) [SEQ ID NO: 59] | 0.15 | 17.4
2 | IVLSLDVPIKLK([γGlu-Palmitoyl])KILLEQEKQEKEKQQAEKNAQILAQV-NH2 (N-terminus assumed; SMILES CCCCCCCCCCCCCCCC(=O)N[C@@H](CCC(=O)NCCCC[C@H](NC(=O)[C@H](CC(C)C)NC(=O)[C@H](CCCCN)NC(=O)[C@@H](NC(=O)[C@@H]1CCCN1C(=O)[C@@H](NC(=O)[C@H](CC(=O)O)NC(=O)[C@H](CC(C)C)NC(=O)[C@H](CO)NC(=O)[C@H](CC(C)C)NC(=O)[C@@H](NC(=O)[C@@H](N)[C@@H](C)CC)C(C)C)C(C)C)[C@@H](C)CC)C(=O)N[C@@H](CCCCN)C(=O)N[C@H](C(=O)N[C@@H](CC(C)C)C(=O)N[C@@H](CC(C)C)C(=O)N[C@@H](CCC(=O)O)C(=O)N[C@@H](CCC(N)=O)C(=O)N[C@@H](CCC(=O)O)C(=O)N[C@@H](CCCCN)C(=O)N[C@@H](CCC(N)=O)C(=O)N[C@@H](CCC(=O)O)C(=O)N[C@@H](CCCCN)C(=O)N[C@@H](CCC(=O)O)C(=O)N[C@@H](CCCCN)C(=O)N[C@@H](CCC(N)=O)C(=O)N[C@@H](CCC(N)=O)C(=O)N[C@@H](C)C(=O)N[C@@H](CCC(=O)O)C(=O)N[C@@H](CCCCN)C(=O)N[C@@H](CC(N)=O)C(=O)N[C@@H](C)C(=O)N[C@@H](CCC(N)=O)C(=O)N[C@H](C(=O)N[C@@H](CC(C)C)C(=O)N[C@@H](C)C(=O)N[C@@H](CCC(N)=O)C(=O)N[C@H](C(N)=O)C(C)C)[C@@H](C)CC)[C@@H](C)CC)C(=O)O) [SEQ ID NO: 3] | 0.01 | 
3 | FTLSLDVPIGLK([AEEA-AEEA-γGlu-C18 diacid])QILLKQQKQKKERQQAETNVQLLERV-NH2 (N-terminus assumed; SMILES CC[C@H](C)[C@H](NC(=O)[C@H](CCC(N)=O)NC(=O)[C@H](CCCCNC(=O)COCCOCCNC(=O)COCCOCCNC(=O)CC[C@H](NC(=O)CCCCCCCCCCCCCCCCC(=O)O)C(=O)O)NC(=O)[C@H](CC(C)C)NC(=O)CNC(=O)[C@@H](NC(=O)[C@@H]1CCCN1C(=O)[C@@H](NC(=O)[C@H](CC(=O)O)NC(=O)[C@H](CC(C)C)NC(=O)[C@H](CO)NC(=O)[C@H](CC(C)C)NC(=O)[C@@H](NC(=O)[C@@H](N)Cc1ccccc1)[C@@H](C)O)C(C)C)[C@@H](C)CC)C(=O)N[C@@H](CC(C)C)C(=O)N[C@@H](CC(C)C)C(=O)N[C@@H](CCCCN)C(=O)N[C@@H](CCC(N)=O)C(=O)N[C@@H](CCC(N)=O)C(=O)N[C@@H](CCCCN)C(=O)N[C@@H](CCC(N)=O)C(=O)N[C@@H](CCCCN)C(=O)N[C@@H](CCCCN)C(=O)N[C@@H](CCC(=O)O)C(=O)N[C@@H](CCCNC(=N)N)C(=O)N[C@@H](CCC(N)=O)C(=O)N[C@@H](CCC(N)=O)C(=O)N[C@@H](C)C(=O)N[C@@H](CCC(=O)O)C(=O)N[C@H](C(=O)N[C@@H](CC(N)=O)C(=O)N[C@H](C(=O)N[C@@H](CCC(N)=O)C(=O)N[C@@H](CC(C)C)C(=O)N[C@@H](CC(C)C)C(=O)N[C@@H](CCC(=O)O)C(=O)N[C@@H](CCCNC(=N)N)C(=O)N[C@H](C(N)=O)C(C)C)C(C)C)[C@@H](C)O) [SEQ ID NO: 56] | 22.9 | 
4 | FTLSLDVPIGLK([AEEA-AEEA-γGlu-C18 diacid])QILLKQQKQKKERQKAETNVQLLERV-NH2 (N-terminus assumed; SMILES CC[C@H](C)[C@H](NC(=O)[C@H](CCC(N)=O)NC(=O)[C@H](CCCCNC(=O)COCCOCCNC(=O)COCCOCCNC(=O)CC[C@H](NC(=O)CCCCCCCCCCCCCCCCC(=O)O)C(=O)O)NC(=O)[C@H](CC(C)C)NC(=O)CNC(=O)[C@@H](NC(=O)[C@@H]1CCCN1C(=O)[C@@H](NC(=O)[C@H](CC(=O)O)NC(=O)[C@H](CC(C)C)NC(=O)[C@H](CO)NC(=O)[C@H](CC(C)C)NC(=O)[C@@H](NC(=O)[C@@H](N)Cc1ccccc1)[C@@H](C)O)C(C)C)[C@@H](C)CC)C(=O)N[C@@H](CC(C)C)C(=O)N[C@@H](CC(C)C)C(=O)N[C@@H](CCCCN)C(=O)N[C@@H](CCC(N)=O)C(=O)N[C@@H](CCC(N)=O)C(=O)N[C@@H](CCCCN)C(=O)N[C@@H](CCC(N)=O)C(=O)N[C@@H](CCCCN)C(=O)N[C@@H](CCCCN)C(=O)N[C@@H](CCC(=O)O)C(=O)N[C@@H](CCCNC(=N)N)C(=O)N[C@@H](CCC(N)=O)C(=O)N[C@@H](CCCCN)C(=O)N[C@@H](C)C(=O)N[C@@H](CCC(=O)O)C(=O)N[C@H](C(=O)N[C@@H](CC(N)=O)C(=O)N[C@H](C(=O)N[C@@H](CCC(N)=O)C(=O)N[C@@H](CC(C)C)C(=O)N[C@@H](CC(C)C)C(=O)N[C@@H](CCC(=O)O)C(=O)N[C@@H](CCCNC(=N)N)C(=O)N[C@H](C(N)=O)C(C)C)C(C)C)[C@@H](C)O) [SEQ ID NO: 57] | 38.8 | 
5 | FTLSLDVPTKIKQILLKQQKQKKERQQAEKNKQLLERV-NH2 (not fully specified (residue 12); printed as FTLSLDVPTKIK*QILLKQQKQKKERQQAEKNKQLLERV-NH2) [SEQ ID NO: 60] | 0.48 | 
6 | FTLSLDVPTKIKQILFKQQKQKKERQQAEKNKQLLEQI-NH2 (not fully specified (residue 12); printed as FTLSLDVPTKIK*QILFKQQKQKKERQQAEKNKQLLEQI-NH2) [SEQ ID NO: 58] | 0.28 | 
7 | FTLSLDVPTKIKQILLKQQKQKKERQQAETNKQLLERV-NH2 (not fully specified (residue 12); printed as FTLSLDVPTKIK*QILLKQQKQKKERQQAETNKQLLERV-NH2) [SEQ ID NO: 61] | 0.38 | 
8 | FTLSLDVPTKIK([AEEA-AEEA-γGlu-C18 diacid])QILLKQQKQKKERQKAETNVQLLERV-NH2 (N-terminus assumed; SMILES CC[C@H](C)[C@H](NC(=O)[C@H](CCC(N)=O)NC(=O)[C@H](CCCCNC(=O)COCCOCCNC(=O)COCCOCCNC(=O)CC[C@H](NC(=O)CCCCCCCCCCCCCCCCC(=O)O)C(=O)O)NC(=O)[C@@H](NC(=O)[C@H](CCCCN)NC(=O)[C@@H](NC(=O)[C@@H]1CCCN1C(=O)[C@@H](NC(=O)[C@H](CC(=O)O)NC(=O)[C@H](CC(C)C)NC(=O)[C@H](CO)NC(=O)[C@H](CC(C)C)NC(=O)[C@@H](NC(=O)[C@@H](N)Cc1ccccc1)[C@@H](C)O)C(C)C)[C@@H](C)O)[C@@H](C)CC)C(=O)N[C@@H](CC(C)C)C(=O)N[C@@H](CC(C)C)C(=O)N[C@@H](CCCCN)C(=O)N[C@@H](CCC(N)=O)C(=O)N[C@@H](CCC(N)=O)C(=O)N[C@@H](CCCCN)C(=O)N[C@@H](CCC(N)=O)C(=O)N[C@@H](CCCCN)C(=O)N[C@@H](CCCCN)C(=O)N[C@@H](CCC(=O)O)C(=O)N[C@@H](CCCNC(=N)N)C(=O)N[C@@H](CCC(N)=O)C(=O)N[C@@H](CCCCN)C(=O)N[C@@H](C)C(=O)N[C@@H](CCC(=O)O)C(=O)N[C@H](C(=O)N[C@@H](CC(N)=O)C(=O)N[C@H](C(=O)N[C@@H](CCC(N)=O)C(=O)N[C@@H](CC(C)C)C(=O)N[C@@H](CC(C)C)C(=O)N[C@@H](CCC(=O)O)C(=O)N[C@@H](CCCNC(=N)N)C(=O)N[C@H](C(N)=O)C(C)C)C(C)C)[C@@H](C)O) [SEQ ID NO: 55] | 48.5 | 
9 | FTLSLDVPIKLK([AEEA-AEEA-γGlu-C18 diacid])QILLKQQKQKKERQQAETNVQLLERV-NH2 (N-terminus assumed; SMILES CC[C@H](C)[C@H](NC(=O)[C@H](CCC(N)=O)NC(=O)[C@H](CCCCNC(=O)COCCOCCNC(=O)COCCOCCNC(=O)CC[C@H](NC(=O)CCCCCCCCCCCCCCCCC(=O)O)C(=O)O)NC(=O)[C@H](CC(C)C)NC(=O)[C@H](CCCCN)NC(=O)[C@@H](NC(=O)[C@@H]1CCCN1C(=O)[C@@H](NC(=O)[C@H](CC(=O)O)NC(=O)[C@H](CC(C)C)NC(=O)[C@H](CO)NC(=O)[C@H](CC(C)C)NC(=O)[C@@H](NC(=O)[C@@H](N)Cc1ccccc1)[C@@H](C)O)C(C)C)[C@@H](C)CC)C(=O)N[C@@H](CC(C)C)C(=O)N[C@@H](CC(C)C)C(=O)N[C@@H](CCCCN)C(=O)N[C@@H](CCC(N)=O)C(=O)N[C@@H](CCC(N)=O)C(=O)N[C@@H](CCCCN)C(=O)N[C@@H](CCC(N)=O)C(=O)N[C@@H](CCCCN)C(=O)N[C@@H](CCCCN)C(=O)N[C@@H](CCC(=O)O)C(=O)N[C@@H](CCCNC(=N)N)C(=O)N[C@@H](CCC(N)=O)C(=O)N[C@@H](CCC(N)=O)C(=O)N[C@@H](C)C(=O)N[C@@H](CCC(=O)O)C(=O)N[C@H](C(=O)N[C@@H](CC(N)=O)C(=O)N[C@H](C(=O)N[C@@H](CCC(N)=O)C(=O)N[C@@H](CC(C)C)C(=O)N[C@@H](CC(C)C)C(=O)N[C@@H](CCC(=O)O)C(=O)N[C@@H](CCCNC(=N)N)C(=O)N[C@H](C(N)=O)C(C)C)C(C)C)[C@@H](C)O) [SEQ ID NO: 54] | 0.57 | 24.5

Next, values leading:

Row | EC50 [nM], 0% HSA [nM] | EC50 [nM], 0.1% HSA [nM] | Binder
10 | 0.8 |  | FTLSLDVPIKLKQILLKQQKQKKERQQAETNVQLLERV-NH2 (not fully specified (residue 12); printed as FTLSLDVPIKLK*QILLKQQKQKKERQQAETNVQLLERV-NH2) [SEQ ID NO: 62]
11 | 9.31 |  | FTLSLDVPIGLKQILLKQQKQKKERQQAETNVQLLERV-NH2 (not fully specified (residue 12); printed as FTLSLDVPIGLK*QILLKQQKQKKERQQAETNVQLLERV-NH2) [SEQ ID NO: 65]
12 | 13.2 |  | FTLSLDVPTKIKQILLKQQKQKKERQKAETNVQLLERV-NH2 (not fully specified (residue 12); printed as FTLSLDVPTKIK*QILLKQQKQKKERQKAETNVQLLERV-NH2) [SEQ ID NO: 64]
13 | 0.63 |  | FTLSLDVPIKLKQILLEQQKQKKERQQAETNVQLLERV-NH2 (not fully specified (residue 12); printed as FTLSLDVPIKLK*QILLEQQKQKKERQQAETNVQLLERV-NH2) [SEQ ID NO: 63]
